# According to patent publication US20180282402A1:
# Molecular target: Cyno HARS (cynomolgus monkey (Macaca fascicularis))
# Assay: SPR (ProteOn); HRS protein immobilized, antibody as analyte
row,Kd,Binder
1,0.075 nM,"AB04-439 (antibody, V domains shown) VH: QVQLVESGGGLVKPGGSLRLSCAASGFTFSDYYMTWIRQAPGKGLEWVSYISGSFRYTNYADSVKGRFTISRDNAKNSLYLQMNSLRDEDTAVYFCARYVYQVVAIGDLWGQGTLVTVSS VL: DIQMTQSPSSVSASVGDRVTITCRASQGISSWLAWYQQKPGRAPKLLIFAASSLQSGVPSRFSGSGSGTHFTLTISSLQPEDFATYYCQQAESFPYTFGQGTKLEIK"
2,< 0.001 nM,"AB13-112 (IgG4 kappa) (antibody, V domains shown) VH: QVQLVESGGGLVKPGGSLRLSCAASGFTFSDYYMSWIRQAPGKGLEWVSYISDKSRYTKYTDKVRGRFTISRDNAKNSLYLQMNSLRAEDTAVYYCARYLYQVIAIADAWGQGTLVTVSS VL: DIQMTQSPSSVSASVGDRVTITCRASQGISSWLAWFQQKPGKAPKLLIFVASNLESGVPSRFSGSGSGTDFTLTISSLQPEDFATYYCQQAESFPYTFGQGTKLEIK"
3,0.24 nM,"AB13-433 (antibody, V domains shown) VH: QVQLVESGGGLVKPGGSLRLSCAASGFTFSDYYMSWIRQAPGKGLEWVSYISDSSTYTNYTDSVRGRFTISRDNAKNSLYLQMNSLRAEDTAVYYCARYLYQVIAVADSWGQGTLVTVSS VL: DIQMTQSPSSVSASVGDRVTITCRASQGISSWLAWFQQKPGKAPKLLIYVASNLESGVPSRFSGSGSGTDFTLTISSLQPEDFATYYCQQANSFPYTFGQGTKLEIK"
4,< 0.001 nM,"AB13-112 (IgG1m(za) kappa) (antibody, V domains shown) VH: QVQLVESGGGLVKPGGSLRLSCAASGFTFSDYYMSWIRQAPGKGLEWVSYISDKSRYTKYTDKVRGRFTISRDNAKNSLYLQMNSLRAEDTAVYYCARYLYQVIAIADAWGQGTLVTVSS VL: DIQMTQSPSSVSASVGDRVTITCRASQGISSWLAWFQQKPGKAPKLLIFVASNLESGVPSRFSGSGSGTDFTLTISSLQPEDFATYYCQQAESFPYTFGQGTKLEIK"
5,0.028 nM,"AB13-288 (IgG4-2 kappa) (antibody, V domains shown) VH: QVQLVESGGGLVKPGGSLRLSCAASGFTFSDYYMSWIRQAPGKGLEWVSYISDKSRYTKYTDKVRGRFTISRDNAKNSLYLQMNSLRAEDTAVYYCARYLYQVIAIADAWGQGTLVTVSS VL: DIQMTQSPSSVSASVGDRVTITCRASQGISSWLAWFQQKPGKAPKLLIFVASNLESGVPSRFSGSGSGTDFTLTISSLQPEDFATYYCQQAESFPYTFGQGTKLEIK"
6,0.002 nM,"AB13-288 (IgG1m(zf) kappa) (antibody, V domains shown) VH: QVQLVESGGGLVKPGGSLRLSCAASGFTFSDYYMSWIRQAPGKGLEWVSYISDKSRYTKYTDKVRGRFTISRDNAKNSLYLQMNSLRAEDTAVYYCARYLYQVIAIADAWGQGTLVTVSS VL: DIQMTQSPSSVSASVGDRVTITCRASQGISSWLAWFQQKPGKAPKLLIFVASNLESGVPSRFSGSGSGTDFTLTISSLQPEDFATYYCQQAESFPYTFGQGTKLEIK"
7,1.2 nM,"KL31-241 (antibody, V domains shown) VH: QVQLVQSGAEVKKPGASVKVSCKASGYTFTDYCIGWIRQAPGQGLEWMGDICPGDAYTNDNEKFKDRATMTADTSTSTAYMELSSLRSEDTAVYYCARGEEQLGLRNAMDYWGQGTSVTVSS VL: DIVMTQSPDSLAVSLGERATINCQSQSVSTSTYNYMHWYQQKPGQPPKLLIKYASNLESGVPDRFSGSGSGTDFTLTISSLQAEDVATYYCQHSWEIPWTFGGGTKLEIK"
8,0.056 nM,"KL31-532 (antibody, V domains shown) VH: QVQLVQSGAEVKKPGASVKVSCKASGYTFTDYCIGWIRQAPGQGLEWMGDICPGDTYTNDNEKFKDRATMTADTSTSTAYMELSSLRSEDTAVYYCARGEEQLGLRNAMDYWGQGTLVTVSS VL: DIVMTQSPDSLAVSLGERATINCQSQSVSTSTYNYMHWYQQKPGQPPKLLIKYASNLESGVPDRFSGSGSGTDFTLTISSLQAEDVATYYCGHSYEIPWTFGGGTKVEIK"
